Biological target: T1, Cas1821 (Cascade backbone);Cas1822;Cas6f (Shewanella putrefaciens …, UniProt A4Y6G1;A4Y6G2;A4Y6G3 1-315;1-336;1-183, ||)
T1 sequence 1: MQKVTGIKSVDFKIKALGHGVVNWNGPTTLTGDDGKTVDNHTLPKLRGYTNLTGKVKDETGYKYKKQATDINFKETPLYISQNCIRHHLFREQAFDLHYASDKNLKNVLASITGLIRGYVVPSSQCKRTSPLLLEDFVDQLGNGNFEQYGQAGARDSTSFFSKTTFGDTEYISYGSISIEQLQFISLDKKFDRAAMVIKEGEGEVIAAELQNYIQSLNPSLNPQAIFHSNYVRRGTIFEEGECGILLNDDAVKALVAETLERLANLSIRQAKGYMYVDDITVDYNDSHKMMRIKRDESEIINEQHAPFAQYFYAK
T1 sequence 2: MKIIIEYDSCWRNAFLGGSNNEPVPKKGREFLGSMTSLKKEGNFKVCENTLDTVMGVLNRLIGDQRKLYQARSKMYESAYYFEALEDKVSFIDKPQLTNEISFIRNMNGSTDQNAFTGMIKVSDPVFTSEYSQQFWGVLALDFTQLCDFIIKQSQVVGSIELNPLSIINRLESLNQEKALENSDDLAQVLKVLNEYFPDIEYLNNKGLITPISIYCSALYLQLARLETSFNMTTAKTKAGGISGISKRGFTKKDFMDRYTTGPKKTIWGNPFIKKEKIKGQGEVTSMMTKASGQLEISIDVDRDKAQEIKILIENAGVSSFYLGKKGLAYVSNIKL
T1 sequence 3: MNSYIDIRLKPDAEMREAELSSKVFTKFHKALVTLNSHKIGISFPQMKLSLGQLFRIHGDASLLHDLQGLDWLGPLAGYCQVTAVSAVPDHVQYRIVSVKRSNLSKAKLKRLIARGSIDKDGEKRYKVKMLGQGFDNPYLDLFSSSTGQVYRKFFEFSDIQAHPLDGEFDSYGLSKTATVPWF
Assay: co-purification (Ni-NTA, size exclusion; RNA by urea PAGE); complex assembled in E. coli; EMSA: 6% native PAGE, 250-500 nM Cas1821, buffer and temperature not given; Cascade SEC: 50 mM HEPES-NaOH pH 7.0, 150 mM NaCl, 1 mM DTT
Conditions: protein: recombinant;recombinant;recombinant; tags: N-terminal His;none;none; chain copies: 6;1;1; 3' five base pair stem-loop (predicted)

B1: mature crRNA, spacer4 (60 nt) (structured_RNA)
RNA: CUUAGAAAUAUCGCCCAGCAAGACGCGCAAACCUAUAACCGUUCACCGCCGCACAGGCGG
- binding result: binds

From publication PMC4605320, “Interference activity of a minimal Type I CRISPR–Cas system from Shewanella putrefaciens”
